Values belong to the substance of their own block, whether it stands above or below them.
Experiments:
CD20 [1] = target: CD20 (UniProt P11836); test: flow cytometry on CLL patient sample CLL187, FITC-rituximab at 10 µg per 10^6 cells, median fluorescence intensity, background corrected
CD20 [2] = target: CD20 (UniProt P11836); test: flow cytometry, FITC-labelled antibody on Daudi and SU-DHL-6 cells
CD20 [3] = target: CD20 (UniProt P11836); test: flow cytometry on CLL patient sample CLL177, FITC-rituximab at 10 µg per 10^6 cells, median fluorescence intensity, background corrected
[4] = target: FcγRIIIa-V158 on Promega Jurkat effector cells (UniProt P08637); test: cell-based or functional assay
[5] = target: biotinylated truncated soluble human FcγRIIa-R131 (human) (UniProt P12318); test: ELISA: IgG coated at 10000-4.5 ng/ml, biotinylated truncated soluble human FcγRIIa-R131 250 ng/ml pre-complexed with AP-streptavidin, absorbance 405 nm
[6] = target: biotinylated truncated soluble human FcγRIIb (human) (UniProt P31994); test: ELISA: IgG coated at 10000-4.5 ng/ml, biotinylated truncated soluble human FcγRIIb 250 ng/ml pre-complexed with AP-streptavidin, absorbance 405 nm
[7] = target: biotinylated soluble human FcRn (human) (UniProt P55899); test: ELISA: IgG coated at 1000-0.45 ng/ml, biotinylated soluble human FcRn 250 ng/ml pre-complexed with AP-streptavidin, pH 7.4, absorbance 405 nm
[8] = target: biotinylated truncated soluble human FcγRI (human) (UniProt P12314); test: ELISA: IgG coated at 10000-4.5 ng/ml, biotinylated truncated soluble human FcγRI 250 ng/ml pre-complexed with AP-streptavidin, absorbance 405 nm
[9] = target: biotinylated truncated soluble human FcγRIIIa-V158 (human) (UniProt P08637); test: ELISA: IgG coated at 10000-4.5 ng/ml, biotinylated truncated soluble human FcγRIIIa-V158 250 ng/ml pre-complexed with AP-streptavidin, absorbance 405 nm
[10] = target: biotinylated truncated soluble human FcγRIIa-H131 (human) (UniProt P12318); test: ELISA: IgG coated at 10000-4.5 ng/ml, biotinylated truncated soluble human FcγRIIa-H131 250 ng/ml pre-complexed with AP-streptavidin, absorbance 405 nm
human CD37 (human) = human CD37 (human) (UniProt P11049); test: flow cytometry on Ramos cells, isotype control, MFI normalised to chHH1-DOTA (blank supernatant 28.3%)
Chain of human CD37 (human) (P11049 whole entry): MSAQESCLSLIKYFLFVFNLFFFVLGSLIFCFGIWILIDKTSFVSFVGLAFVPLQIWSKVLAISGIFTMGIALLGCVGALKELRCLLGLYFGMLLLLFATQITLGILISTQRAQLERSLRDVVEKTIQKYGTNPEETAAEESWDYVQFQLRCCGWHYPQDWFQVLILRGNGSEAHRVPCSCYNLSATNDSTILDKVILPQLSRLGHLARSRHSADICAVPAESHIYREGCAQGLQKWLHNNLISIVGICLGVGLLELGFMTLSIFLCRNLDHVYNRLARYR

Chain of CD20 (P11836 whole entry): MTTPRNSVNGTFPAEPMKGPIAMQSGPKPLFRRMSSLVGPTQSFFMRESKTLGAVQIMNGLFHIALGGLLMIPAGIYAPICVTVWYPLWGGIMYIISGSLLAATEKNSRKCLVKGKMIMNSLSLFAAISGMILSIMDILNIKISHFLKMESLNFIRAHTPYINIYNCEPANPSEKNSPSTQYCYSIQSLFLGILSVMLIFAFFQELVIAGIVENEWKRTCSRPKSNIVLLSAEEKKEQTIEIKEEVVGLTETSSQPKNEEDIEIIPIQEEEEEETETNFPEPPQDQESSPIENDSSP
Chain of biotinylated truncated soluble human FcγRIIa-H131 (human) (P12318 34-217): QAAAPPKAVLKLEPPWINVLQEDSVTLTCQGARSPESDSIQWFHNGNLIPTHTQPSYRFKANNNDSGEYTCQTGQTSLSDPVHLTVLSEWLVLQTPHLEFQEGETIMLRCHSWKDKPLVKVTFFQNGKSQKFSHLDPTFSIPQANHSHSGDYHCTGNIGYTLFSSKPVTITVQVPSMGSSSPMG
Chain of biotinylated truncated soluble human FcγRI (human) (P12314 16-292): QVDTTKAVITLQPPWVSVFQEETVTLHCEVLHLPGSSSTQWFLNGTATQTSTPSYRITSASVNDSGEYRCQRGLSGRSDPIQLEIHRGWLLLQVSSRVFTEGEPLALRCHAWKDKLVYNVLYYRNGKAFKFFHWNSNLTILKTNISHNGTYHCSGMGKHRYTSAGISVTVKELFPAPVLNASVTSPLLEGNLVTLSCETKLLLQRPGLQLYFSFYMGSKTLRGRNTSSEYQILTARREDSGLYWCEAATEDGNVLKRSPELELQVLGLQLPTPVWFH
Chain of biotinylated truncated soluble human FcγRIIa-R131 (human) (P12318 34-217 H167R): as the sequence (P12318 34-217) above, with H134R counted along it
Chain of biotinylated truncated soluble human FcγRIIb (human) (P31994 43-217): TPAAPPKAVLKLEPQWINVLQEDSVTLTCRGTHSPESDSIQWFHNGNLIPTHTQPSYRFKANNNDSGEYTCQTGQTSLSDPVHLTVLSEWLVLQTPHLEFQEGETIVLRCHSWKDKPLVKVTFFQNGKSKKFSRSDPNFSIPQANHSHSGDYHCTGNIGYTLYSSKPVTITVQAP

Avg. MFI (a.u.) (CD20 [1]): 68 a.u.
saturation titer (µg per 10^6 cells) (CD20 [2]): 10
Avg. MFI (a.u.) (CD20 [3]): 52 a.u.
Substance: Anti-CD20 (10F381 rituximab) FITC-conjugated rabbit/human chimeric Ab (antibody)

average potency of the ADCC response (Example 13) [4]: 1.1 nM
EC50 (read off the curve) [5]: 2 µg/mL
EC50 (read off the curve) [6]: 2 µg/mL
EC50 (read off the curve) [7]: 0.06 µg/mL
EC50 (read off the curve) [8]: 0.6 µg/mL
EC50 (read off the curve) [9]: 1 µg/mL
EC50 (read off the curve) [10]: 0.6 µg/mL
Substance: obinutuzumab (antibody)

Normalized average binding (%) (human CD37 (human)): 29.5%
Substance: isotype control antibody

Source: US20250333531A1
